The target of test [1] is T1, hCDH17-his (full length extracellular domain of human CDH17, Q23-M787, his tag at the C-terminal) (human, UniProt Q12864 23-787).
T1 construct: Limits of the construct (UniProt Q12864, Q23-M787, C-terminal his tag); also called human CDH17-his protein; human CDH17 protein
T1 sequence: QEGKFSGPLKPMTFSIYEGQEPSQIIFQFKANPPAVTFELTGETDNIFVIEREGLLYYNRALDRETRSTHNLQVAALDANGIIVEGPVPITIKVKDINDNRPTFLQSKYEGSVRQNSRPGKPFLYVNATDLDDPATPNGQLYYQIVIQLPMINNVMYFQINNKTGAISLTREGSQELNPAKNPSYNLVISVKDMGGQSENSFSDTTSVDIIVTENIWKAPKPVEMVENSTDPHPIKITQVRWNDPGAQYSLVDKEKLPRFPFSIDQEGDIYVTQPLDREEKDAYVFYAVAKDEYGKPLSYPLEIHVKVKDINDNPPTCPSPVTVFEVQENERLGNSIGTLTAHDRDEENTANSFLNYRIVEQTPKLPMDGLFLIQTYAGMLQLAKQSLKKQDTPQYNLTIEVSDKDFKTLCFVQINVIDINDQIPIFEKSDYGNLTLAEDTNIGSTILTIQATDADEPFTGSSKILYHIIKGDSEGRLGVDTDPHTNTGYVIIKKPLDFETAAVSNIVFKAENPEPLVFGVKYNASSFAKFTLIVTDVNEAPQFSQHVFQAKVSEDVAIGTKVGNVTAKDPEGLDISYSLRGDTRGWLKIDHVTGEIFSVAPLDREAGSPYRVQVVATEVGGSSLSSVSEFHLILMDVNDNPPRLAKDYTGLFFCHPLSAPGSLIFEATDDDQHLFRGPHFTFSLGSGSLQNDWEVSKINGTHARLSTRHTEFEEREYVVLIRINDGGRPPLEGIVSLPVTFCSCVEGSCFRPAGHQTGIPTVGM
Briefly: ELISA, hCDH17-his coated at 2 ug/mL.

Test [2] has as its target T2, human CDH17, full length, expressed on cells (HEK293-hCDH17); AsPC-1, HCT-8, AGS, LoVo, KATO III, HT-29 tumor … (human, UniProt Q12864 23-832).
T2 construct: also called human CDH17 expressed on tumor cells
T2 sequence: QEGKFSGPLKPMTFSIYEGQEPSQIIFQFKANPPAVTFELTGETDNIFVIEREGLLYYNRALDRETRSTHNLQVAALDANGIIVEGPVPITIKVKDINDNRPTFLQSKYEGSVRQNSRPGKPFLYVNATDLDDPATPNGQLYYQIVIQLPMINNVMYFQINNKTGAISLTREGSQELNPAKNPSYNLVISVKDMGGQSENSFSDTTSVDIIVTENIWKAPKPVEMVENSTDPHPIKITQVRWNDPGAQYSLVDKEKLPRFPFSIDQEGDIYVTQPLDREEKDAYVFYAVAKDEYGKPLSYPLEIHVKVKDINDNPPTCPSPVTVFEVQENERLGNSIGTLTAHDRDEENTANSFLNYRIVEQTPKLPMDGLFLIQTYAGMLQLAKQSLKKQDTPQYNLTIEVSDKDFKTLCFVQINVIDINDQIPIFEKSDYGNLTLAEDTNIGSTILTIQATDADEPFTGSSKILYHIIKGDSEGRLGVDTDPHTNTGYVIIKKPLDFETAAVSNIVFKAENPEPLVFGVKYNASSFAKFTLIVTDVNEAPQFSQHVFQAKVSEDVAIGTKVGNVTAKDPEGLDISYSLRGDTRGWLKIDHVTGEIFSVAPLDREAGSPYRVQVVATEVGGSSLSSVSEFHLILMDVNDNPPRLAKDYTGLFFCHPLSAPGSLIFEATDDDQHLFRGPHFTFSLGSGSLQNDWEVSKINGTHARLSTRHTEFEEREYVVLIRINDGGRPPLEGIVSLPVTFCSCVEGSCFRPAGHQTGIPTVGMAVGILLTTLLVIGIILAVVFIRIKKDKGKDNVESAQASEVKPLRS
The test is described as follows: flow cytometry, HEK293-hCDH17 cells.

For test [3], the target named is T3, human CDH16 protein (hCDH16-his, Novoprotein, Cat. No. CJ16) (human, UniProt O75309 19-786).
T3 construct: Bought; also called human CDH16-his
T3 sequence (looked up): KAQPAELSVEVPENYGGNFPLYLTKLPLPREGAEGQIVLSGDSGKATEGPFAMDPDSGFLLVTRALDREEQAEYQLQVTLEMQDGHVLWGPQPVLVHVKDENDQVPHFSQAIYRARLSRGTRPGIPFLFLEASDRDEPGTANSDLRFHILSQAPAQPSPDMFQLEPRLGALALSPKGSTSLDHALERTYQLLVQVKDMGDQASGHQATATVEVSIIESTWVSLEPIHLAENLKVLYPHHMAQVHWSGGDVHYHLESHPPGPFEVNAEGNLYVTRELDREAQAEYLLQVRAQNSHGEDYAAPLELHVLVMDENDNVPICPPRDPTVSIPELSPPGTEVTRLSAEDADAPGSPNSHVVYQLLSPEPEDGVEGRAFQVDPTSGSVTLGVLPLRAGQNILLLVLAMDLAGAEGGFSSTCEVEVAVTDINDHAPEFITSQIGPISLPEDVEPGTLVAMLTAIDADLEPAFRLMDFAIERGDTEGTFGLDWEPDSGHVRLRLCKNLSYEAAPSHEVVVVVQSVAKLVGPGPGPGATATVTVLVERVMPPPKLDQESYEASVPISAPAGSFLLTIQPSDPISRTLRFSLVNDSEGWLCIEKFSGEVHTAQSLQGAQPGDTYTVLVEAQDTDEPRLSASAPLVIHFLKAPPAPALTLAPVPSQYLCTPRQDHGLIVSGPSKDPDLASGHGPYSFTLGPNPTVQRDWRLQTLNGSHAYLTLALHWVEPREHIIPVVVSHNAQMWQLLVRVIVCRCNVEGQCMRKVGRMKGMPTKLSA
The test is described as follows: ELISA, hCDH16-his coated at 1 ug/mL.

Test [4] has as its target T2, human CDH17, full length, expressed on …. The test is described as follows: flow cytometry, HCT-8 cells.
Test [5] deals with T1, hCDH17-his (full length extracellular …). Briefly: SPR (Biacore 8K), two doses, antibody captured on Protein A chip, hCDH17-his at 25 nM and 100 nM.
For test [6], the target named is T2, human CDH17, full length, expressed on …. Briefly: flow cytometry, LoVo, HCT-8 and AsPC1 cells.

B1: 16C18 chimeric mAb (antibody, V domains shown)
VH: QVQLQQSGAELAKPGTSVKMSCKASGYNFTNYWMNWVKQRPGQGLEWIGTFNPSYGYTEYNQKFKDKAILTADKSSSTAYMQLNSLTSEDSAVYYCARRSSHFDYWGQGTTLTVSS
VL: DIVMSQSPSSLAVSAGEKVTMSCKSSQSLLNSRTRTNYLAWYQQKPGQSPKLLIYWASTRESGVPDRFTGSGSGTDFTLTISSVQAEDLAVYYCKQSYNLPTFGGGTKLEIK
notes: also called 16C8
Consider B1, for which the binding result in test [1] is given as “binds”; in test [2], “binds”; in test [3], “no binding (tested: titrated from 100 nM)”.

B2: 29D2D7-z19p3 (antibody, V domains shown)
VH: QVQLVQSGAEVKKPGASVKVSCKASGYTFTDYDMHWVKQAPGQGLEWIGGFDPESAGTVYNLRFKDKATLTADKSTSTAYMELRSLRSEDTAVYYCARKGYYSVSSPFTYWGQGTLVTVSS
VL: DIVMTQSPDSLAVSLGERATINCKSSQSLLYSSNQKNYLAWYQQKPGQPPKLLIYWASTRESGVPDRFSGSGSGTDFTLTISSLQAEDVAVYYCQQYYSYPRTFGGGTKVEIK
notes: PTM-removed variant of 29D2D7-z19; VH is that of 29D2D7-z19
On to B2, for which the binding result in test [4] and in test [5] was “binds” throughout.

B3: 29D2D7-z19p5 (antibody, V domains shown)
VH: QVQLVQSGAEVKKPGASVKVSCKASGYTFTDYDMHWVKQAPGQGLEWIGGFDPESAGTVYNLRFKDKATLTADKSTSTAYMELRSLRSEDTAVYYCARKGYYSVSSPFTYWGQGTLVTVSS
VL: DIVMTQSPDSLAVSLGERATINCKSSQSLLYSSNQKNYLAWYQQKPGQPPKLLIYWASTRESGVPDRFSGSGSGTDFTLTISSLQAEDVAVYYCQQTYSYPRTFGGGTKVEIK
notes: as for B2
On to B3, for which the binding result in test [4] and in test [5] was “binds” in each case.

B4: 69E3H11-z12a19 (antibody, V domains shown)
VH: QVQLVQSGAEVKKPGASVKVSCKASGYTFTTYWMHWVKQAPGQRLEWIGEIDPSDSYANYNQKFKGKATLTVDKSASTAYMELSSLRSEDTAVYYCALYYGYGDWGQGTTVTVSS
VL: EIVLTQSPGTLSLSPGERATLSCSVSSSISKIHLHWYQQKPGQAPRLLIYRTSNLASGIPDRFSGSGSGTDFTLTISRLEPEDFAVYYCQQGSNLPLTFGQGTRLEIK
Turning to B4, the binding result in test [6] and in test [5] was “binds” each time.

B5: 69E3H11-z12a21 (antibody, V domains shown)
VH: QVQLVQSGAEVKKPGASVKVSCKASGYTFTTYWMHWVKQAPGQRLEWIGEIDPSDSYANYNQKFKGKATLTVDKSASTAYMELSSLRSEDTAVYYCALYYGYGDWGQGTTVTVSS
VL: EIVLTQSPGTLSLSPGERATLSCSVSASISRIHLHWYQQKPGQAPRLLIYRTSNLASGIPDRFSGSGSGTDFTLTISRLEPEDFAVYYCQQGSNLPLTFGQGTRLEIK
Turning to B5, the binding result in test [6] and in test [5] was “binds” in each case.

B6: 69E3H11-z12a26 (antibody, V domains shown)
VH: QVQLVQSGAEVKKPGASVKVSCKASGYTFTTYWMHWVKQAPGQRLEWIGEIDPSDSYANYNQKFKGKATLTVDKSASTAYMELSSLRSEDTAVYYCALYYGYGDWGQGTTVTVSS
VL: EIVLTQSPGTLSLSPGERATLSCSVSSSISSIHLHWYQQKPGQAPRLLIYRTRNLASGIPDRFSGSGSGTDFTLTISRLEPEDFAVYYCQQGSNLPLTFGQGTRLEIK
Take B6: the binding result in test [6] and in test [5] was “binds” in each case.

B7: 69E3H11-z12a20 (antibody, V domains shown)
VH: QVQLVQSGAEVKKPGASVKVSCKASGYTFTTYWMHWVKQAPGQRLEWIGEIDPSDSYANYNQKFKGKATLTVDKSASTAYMELSSLRSEDTAVYYCALYYGYGDWGQGTTVTVSS
VL: EIVLTQSPGTLSLSPGERATLSCSVSSSISRIHLHWYQQKPGQAPRLLIYRTSNLASGIPDRFSGSGSGTDFTLTISRLEPEDFAVYYCQQGSNLPLTFGQGTRLEIK
As to B7, the binding result in test [6] and in test [5] was “binds” throughout.

B8: 69E3H11-z12a28 (antibody, V domains shown)
VH: QVQLVQSGAEVKKPGASVKVSCKASGYTFTTYWMHWVKQAPGQRLEWIGEIDPSDSYANYNQKFKGKATLTVDKSASTAYMELSSLRSEDTAVYYCALYYGYGDWGQGTTVTVSS
VL: EIVLTQSPGTLSLSPGERATLSCSVSSSISSIHLHWYQQKPGQAPRLLIYRTKNLASGIPDRFSGSGSGTDFTLTISRLEPEDFAVYYCQQGSNLPLTFGQGTRLEIK
In the case of B8, the binding result in test [6] and in test [5] was “binds” throughout.

B9: 69E3H11-z12a27 (antibody, V domains shown)
VH: QVQLVQSGAEVKKPGASVKVSCKASGYTFTTYWMHWVKQAPGQRLEWIGEIDPSDSYANYNQKFKGKATLTVDKSASTAYMELSSLRSEDTAVYYCALYYGYGDWGQGTTVTVSS
VL: EIVLTQSPGTLSLSPGERATLSCSVSSSISSIHLHWYQQKPGQAPRLLIYRTRNRASGIPDRFSGSGSGTDFTLTISRLEPEDFAVYYCQQGSNLPLTFGQGTRLEIK
Consider B9, for which the binding result in test [6] and in test [5] was “binds” in each case.

B10: 69E3H11-z12a42 (antibody, V domains shown)
VH: QVQLVQSGAEVKKPGASVKVSCKASGYTFTTYWMHWVKQAPGQRLEWIGEIDPSDSYANYNQKFKGKATLTVDKSASTAYMELSSLRSEDTAVYYCALYYGYGDWGQGTTVTVSS
VL: EIVLTQSPGTLSLSPGERATLSCSVSASISRIHLHWYQQKPGQAPRLLIYRTRNRASGIPDRFSGSGSGTDFTLTISRLEPEDFAVYYCQQGSNLPLTFGQGTRLEIK
In the case of B10, the binding result in test [6] and in test [5] was “binds” throughout.

B11: 120B10C5 chimeric mAb (antibody, V domains shown)
VH: QVQLQQSGAELAKPGASVKLSCRTSGYTFTNYWMHWVKQRPGQGLEWIGYINPSSGYTKYNQKFKDKATLTADKSSSTAYMQLSSLTYEDSAVHYCARSLNYYDSGYWYFDVWGTGTAVTVSS
VL: DIVLTQSPASLAVSLGQRATISCRASQSVSTSSYSYMHWYQQKPGQPPKLLIKYASNLESRVPARFSGSGSGTDFTLNIHPVEEEDSATYYCQHSWEIPWTFGGGTKLEIK
notes: Mouse variable regions fused to human IgG1 constant region
Regarding B11, the binding result is “binds” in test [1], “binds” in test [2] and “no binding (tested: titrated from 100 nM)” in test [3].

For the origin of these results see patent EP4806514A2 (Lepu Biopharma Co., Ltd., dated 2025).
